Experimental data reported in article PMC10998830.
Where “and” joins values, the source holds several entries; their conditions need not be identical. Identical values can stand only once.

Key:
[1] = test system: O=P(O)(O)OC[C@H]1O[C@H](OP(=O)(O)OP(=O)(O)O)[C@H](O)[C@@H]1O; assay: purified protein, by the assay type; details: 25.0 °C
Protocol: (§1) Kinetics and thermal denaturation data were analysed by the nonlinear regression function of SigmaPlot 14.0 (SPSS Inc.). Thermal denaturation data were fitted to Eq. (1). Substrate saturation curves at a fixed concentration of the co-substrate were fitted to Eq. (2). Initial rate data at varying concentrations of HisZ were fitted to Eq. (3). The concentration of ATPPRT at any concentration of AbHisGS and AbHisZ was calculated according to Eq. (4). Histidine dose-response data were fitted to Eq. (5). Single-turnover data with WT-AbATPPRT isotopologues were fitted to Eq. (6). Plots of kcat ratios against relative viscosity were fitted to Eq. (7). Temperature-rate profile for AbHisGS was fitted to Eq. (8). Single-turnover data with R70A-AbATPPRT isotopologues were fitted to Eq. (9). In Eqs. […] While kcats for [^13C,^15N]AbHisGS and [^2H,^13C,^15N]AbHisGS are marginally lower than for unlabelled AbHisGS and [^15N]AbHisGS, the overlapping nature of most data points in Fig. 1c disagrees with distinguishable heavy-enzyme kinetic isotope effects on kcat (^HEkcat). […] This was further probed by pre-steady-state kinetics under multiple-turnover conditions. The AbHisGS reaction had been shown not to have a burst of product formation, which is reproduced here for unlabelled AbHisGS, whose traces overlap with those for [^2H,^13C,^15N]AbHisGS (Supplementary Fig. 5). S5 Supplementary Figure 4 Substrate saturation curves for unlabelled AbATPPRT with AbHisGS purified from cultures grown in M9 and M9 with high cell density compared with previously published data (reproduced here) for unlabelled AbATPPRT with AbHisGS purified from cultures grown in LB. For the M9 and M9 high cell density curves, all data points are shown for two independent measurements, except for the previously published LB curves, where data are the mean of two independent measurements. Lines are best fit of the data to equation (2): solid line for M9 high cell density curves, long-dashed line for M9 curves, and short-dashed line for previously published LB curves. Supplementary Figure 5 Rapid kinetics of PRATP formation at 25 °C by unlabelled AbHisGS and [2H,13C,15N]AbHisGS under multiple-turnover conditions. All traces are shown for eight replicates with each isotopologue.

[2] = test system: Nc1ncnc2c1ncn2[C@@H]1O[C@H](COP(=O)(O)OP(=O)(O)OP(=O)(O)O)[C@@H](O)[C@H]1O; assay: purified protein, by the assay type; details: 25.0 °C
Protocol: as §1

AbHisGS (Acinetobacter baumannii ACICU) was tested. Which Km [1] did it give?
The Km was 540 ± 40 µM and 330 ± 10 µM and 420 ± 20 µM.

What about the kcat [1] of the same substance?
The kcat was 0.38 s⁻¹ and 0.34 s⁻¹.

What about the kcat/Km [1] of the same substance?
The kcat/Km was 700 M⁻¹ s⁻¹ and 1020 M⁻¹ s⁻¹ and 810 M⁻¹ s⁻¹.

And the Km [2]?
Its Km is 900 ± 100 µM and 800 ± 100 µM and 590 ± 30 µM.

What about the kcat [2] of the same substance?
Its kcat is 0.38 s⁻¹ and 0.34 s⁻¹.

And the kcat/Km [2]?
The kcat/Km was 420 M⁻¹ s⁻¹ and 580 M⁻¹ s⁻¹.
